Source: patent US20250243243A1, “DISRUPTION OF SONIC HEDGEHOG-SURF4 INTERACTION FOR CANCER TREATMENT” (The Hong Kong University of Science and Technology, priority 2022, published 2025)

Columns and labels:
[1] = molecular target: T1, GST-SURF4^49-60 (Homo sapiens, UniProt O15260); experiment: Peptide binding assay: peptides immobilized on thiopyridone sepharose 6B beads, GST-SURF4^49-60 as prey, immunoblot; details: pull down, immunoblotting with anti-GST antibodies
T1 construct: N-terminal GST-tagged SURF4^49-60; made in house; host or cells: E. coli
Procedure: (§1) Immunoprecipitation was performed as described (27). Purification of GST-tagged ShhN^25-49 and GST-tagged […] was performed as described previously (54). GST pull down assays were performed as described previously (54). Peptide binding assay was performed as described previously (27).
(§2) Peptide binding assay was performed as described previously (59). Synthetic CW peptides ([…]; SEQ ID NO: 6), CW^MT peptides ([…]; SEQ ID NO: 9), SURF4^49-61 peptides ([…]; SEQ ID NO: 10), SURF4^49-60 peptides ([…]; SEQ ID NO: 12), or RRFR peptides ([…]; SEQ ID NO: 11) were purchased from GenScript and coupled to thiopyridone-Sepharose 6B beads (Sigma-Aldrich) via the added C-terminal cysteine residue. For binding experiments, 2 ? g purified GST-tagged SURF4^49-60 or Shh^25-49-GST was preincubated at 4° C. for 30 min in a total volume of […] HK buffer. After incubation, […] buffer containing around 5 ? l beads containing 5 nmol of peptides was added to the reaction mixture for 1 h at 4° C. The beads were washed four times with […] of HK buffer and analyzed by immunoblotting.

[2] = molecular target: T2, Shh^25-49-GST (Mus musculus, UniProt Q62226); experiment: Peptide binding assay: immobilized SURF4 luminal peptides, Shh^25-49-GST as prey, immunoblot; set-up: species or system human; details: pull down, immunoblotting with anti-GST antibodies
T2 construct: C-terminal GST-tagged Shh^25-49; made in house; host or cells: E. coli
T2 sequence (Q62226 25-49): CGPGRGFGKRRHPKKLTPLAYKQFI
Procedure: as §1, §2

[3] = molecular target: T3, GST (Schistosoma japonicum, UniProt P08515); experiment: Peptide binding assay: immobilized peptides, GST as prey, immunoblot; details: pull down, GST control prey
T3 construct: made in house; host or cells: E. coli
T3 sequence (P08515 whole entry): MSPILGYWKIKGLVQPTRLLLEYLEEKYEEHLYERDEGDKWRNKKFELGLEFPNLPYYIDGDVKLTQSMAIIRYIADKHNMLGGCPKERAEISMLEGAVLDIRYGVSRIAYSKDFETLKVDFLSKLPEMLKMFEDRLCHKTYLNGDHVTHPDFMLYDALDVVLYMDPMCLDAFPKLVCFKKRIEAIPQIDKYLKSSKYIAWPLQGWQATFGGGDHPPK
Procedure: as §1, §2

[4] = molecular target: T4, interaction between ShhN and SURF4 (Mus musculus, UniProt Q62226); experiment: GST pull down of SURF4-HA from HEK293T lysates by ShhN^25-49-GST in the presence of heparin; assay type: binding, human
T4 construct: Purified GST-tagged human ShhN^25-49 was incubated with lysates; made in house; host or cells: ShhN25-49-GST from E. coli; SURF4-HA in lysates of transfected HEK293T cells
Procedure: as §1
Purification of GST-tagged ShhN^25-49 and GST-tagged SURF4^49-60 was performed as described previously (58). GST pull down assays were carried out with 10 μl of compact GSH beads bearing around 5 ? g of GST-tagged ShhN^25-49. The beads were incubated with […] of 0.5 mg/ml of cell lysates from HEK293T cells transfected with HA-SURF4 in HKT buffer at pH 6.0 or 7.2 with mixing at 4° C. overnight. After incubation, the beads were washed three times with […] of HKT buffer and twice with […] of HK buffer, and the bound material was analyzed by immunoblotting.

CW(KR-AA) peptides: Alanine substituted mutant of the CW peptide, AAAHPAAC (SEQ ID NO: 9)
level of GST-SURF4^49-60 bound to immobilized peptides [1]: bound more efficiently to the wild-type CW sequence than an alanine substituted mutant

RRFR peptides: Peptides corresponding to the first intracellular loop of Frizzled6, VRRFRYPERPC (SEQ ID NO: 11)
level of GST-SURF4^49-60 bound to immobilized peptides [1]: significantly lower than that bound to the CW peptides

SURF4 luminal peptides: First luminal loop of SURF4, SEQRDYIDTTWNC (SEQ ID NO: 10)
interaction of Shh^25-49-GST with immobilized SURF4 luminal peptides [2]: interacts | binding of GST to immobilized peptides [3]: not GST interacts

heparin
inhibition of the interaction between ShhN and SURF4 ([4]; indicated concentrations of heparin): inhibited the interaction between ShhN and SURF4 in a concentration-dependent manner | inhibition of the ShhN-SURF4 interaction at pH 6.0 ([4]; pH 6.0): still inhibits the ShhN-SURF4 interaction
